T1: FKBP25 (FKBP3) wild type (Homo sapiens, UniProt Q00688 1-224)
T1 sequence: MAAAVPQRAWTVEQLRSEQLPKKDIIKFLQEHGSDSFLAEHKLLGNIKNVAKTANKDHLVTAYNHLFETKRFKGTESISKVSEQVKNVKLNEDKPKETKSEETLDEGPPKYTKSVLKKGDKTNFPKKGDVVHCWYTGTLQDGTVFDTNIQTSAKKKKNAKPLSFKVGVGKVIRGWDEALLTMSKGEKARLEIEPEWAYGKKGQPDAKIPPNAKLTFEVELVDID

B1: DNA-1 (dT-EDTA at position 5) (dsDNA)
DNA 1: AGGGTCTCCATTTTGAAGCATGC
DNA 2: GCATGCTTCAAAATGGAGACCCT
modifications: dT-EDTA at T5 of strand 1 (Mn2+ or Ca2+ chelated)
B2: DNA-2 (dT-EDTA at position 27) (dsDNA)
DNA 1: AGGGTCTCCATTTTGAAGCATGC
DNA 2: GCATGCTTCAAAATGGAGACCCT
modifications: dT-EDTA at residue 27 (T4 of strand 2; numbering 24-46 on antisense)
B3: DNAYY1 23-bp (dsDNA)
DNA 1: AGGGTCTCCATTTTGAAGCATGC
DNA 2: GCATGCTTCAAAATGGAGACCCT

Experiments:
FKBP25 (FKBP3) wild type = target: T1, FKBP25 (FKBP3) wild type; test: NMR PRE
YY1-DBD = YY1-DBD (UniProt P25490 286-414); test: ITC
YY1-DBD, sequence (P25490 286-414): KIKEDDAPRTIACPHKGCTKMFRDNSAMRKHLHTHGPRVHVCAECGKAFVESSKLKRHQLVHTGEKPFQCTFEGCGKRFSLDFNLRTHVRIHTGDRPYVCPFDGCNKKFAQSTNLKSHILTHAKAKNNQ

| Binder | binding result (FKBP25 (FKBP3) wild type) | Kd (YY1-DBD) |
| --- | --- | --- |
| B1 | binds |  |
| B2 | binds |  |
| B3 |  | 390 ± 600 nM |

Reference: paper PMC4824100
